In patent US9127040B2, “Regulation of sodium channels by PLUNC proteins” (The University of North Carolina at Chapel Hill, priority 2011, dated 2015):

Key:
neutrophil elastase = target: T1, neutrophil elastase (Homo sapiens, UniProt P08246); test: Cleavage of SPLUNC1 by neutrophil elastase at pH 6 vs 7.4; conditions: 10 μM SPLUNC1, 100 nM neutrophil elastase
T1 sequence (P08246 30-267): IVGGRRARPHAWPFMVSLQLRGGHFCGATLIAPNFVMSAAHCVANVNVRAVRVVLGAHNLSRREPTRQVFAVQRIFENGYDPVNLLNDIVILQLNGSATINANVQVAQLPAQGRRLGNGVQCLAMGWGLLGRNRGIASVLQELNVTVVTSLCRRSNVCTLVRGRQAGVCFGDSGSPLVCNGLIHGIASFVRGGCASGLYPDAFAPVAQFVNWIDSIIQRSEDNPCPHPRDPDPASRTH
Procedure: A, Neutrophil elastase activity is moderately greater at pH 6 than at pH 7.4. B, Coomassie-stained gel showing 10 μM SPLUNC1 exposed to 100 nM Neutrophil elastase at pH 6 and 7.4. The reaction was stopped at timed intervals.
Based on SPLUNC1 but not S18's pH-sensitivity (FIGS. 25B and 25C), we hypothesized that SPLUNC1 undergoes a conformational change, and binds to itself at pH 6. To test this, we exposed SPLUNC1 to neutrophil elastase at pH 6 vs. 7.4 (FIG. 26). […] This is consistent with our hypothesis that less SPLUNC1 is exposed at low pH.

trypsin = test: Cell-free fluorogenic assay, trypsin cleavage of BGAR-MCA; format: biochemical; conditions: 50 ng/ml rSPLUNC1 or 2 U/ml aprotinin; 1.0 or 0.3 U/ml trypsin
Procedure: For cell-free assays, reactions were carried out in 50 μl Ringer in a 96 well plate format with 100 μM BGAR-MCA. To measure endogenous protease activity in human bronchial epithelial cultures, 30 μl Ringer with 100 μM BGAR-MCA were placed directly onto the mucosal surfaces of human bronchial epithelial cultures grown on 12 mm T-clear inserts and the cultures were assayed in 12 well plates.

B1: SPLUNC1: human SPLUNC1 (SEQ ID NO:1), 256 amino acid secreted PLUNC family protein; rSPLUNC1 is the purified V5/6His-tagged recombinant form (protein, listed as Homo sapiens)
chain: MFQTGGLIVFYGLLAQTMAQFGGLPVPLDQTLPLNVNPALPLSPTGLAGSLTNALSNGLLSGGLLGILENLPLLDILKPGGGTSGGLLGGLLGKVTSVIPGLNNIIDIKVTDPQLLELGLVQSPDGHRLYVTIPLGIKLQVNTPLVGASLLRLAVKLDITAEILAVRDKQERIHLVLGDCTHSPGSLQISLLDGLGPLPIQGLLDSLTGILNKVLPELVQGNVCPLVNEVLRGLDITLVHDIVNMLIHGLQFVIKV
modifications: V5/6His tag in recombinant form
notes: rSPLUNC1 is the purified V5/6His-tagged recombinant form
cleavage by neutrophil elastase at pH 6 (neutrophil elastase): resistant to cleavage
inhibition of trypsin cleavage of fluorogenic substrate BGAR-MCA (trypsin): ~10%
